Here are results for two molecules from article PMC6056499, “A systematic dissection of sequence elements determining β-Klotho and FGF interaction and signaling” (Scientific Reports, 2018).

Assay [1] deals with FGFR (expressed endogenously in HEK293T reporter cells). In words: Elk1-luciferase reporter assay in HEK293T reporter cells without β-Klotho (no KLB). The settings on record: d.n.c = did not converge. In kind it is cell-based, human. The protocol: To measure the signaling activity of β-Klotho mutants, ELK luciferase assay was performed in HEK293T cells that were stably transfected with reporter constructs containing 5 × UAS upstream of luciferase and Gal4 DNA-binding domain fused to ELK1. Briefly, HEK293T reporter cells were maintained in DMEM supplemented with 10% (v/v) FBS (Gibco) and 2 mM GlutaMax (Gibco) in a 37 °C incubator with 5% CO2. Cells were plated on 96-well plates in growth medium and incubated overnight. […] Cells were serum-starved in DMEM supplemented with 5% (v/v) FBS (Gibco) and 2 mM GlutaMax (Gibco) overnight the day after transfection and treated with FGF21 for 6 hours at 37 °C with 5% CO2, after which the cells were lysed in Bright-Glo luciferase reagent (Promega). Luciferase activity was measured in relative luminescence units on the EnVision Multilabel Plate Reader (PerkinElmer) according to the manufacturer’s instructions. All assays were performed in duplicates. EC50 values were determined from a three-parameter logistic regression model with the least squares fit using GraphPad Prism version 7.

A further assay has as its system β-Klotho/FGFR complex. In words: Elk1-luciferase reporter assay in HEK293T reporter cells transiently transfected with full-length WT β-Klotho. Format: cell-based, human. Particulars: 6 h treatment, mean ± SD of three independent experiments, read-out: EC50, stimulation of Elk1-luciferase reporter activity (KLB WT). The procedure:
To measure the signaling activity of β-Klotho mutants, ELK luciferase assay was performed in HEK293T cells that were stably transfected with reporter constructs containing 5 × UAS upstream of luciferase and Gal4 DNA-binding domain fused to ELK1. Briefly, HEK293T reporter cells were maintained in DMEM supplemented with 10% (v/v) FBS (Gibco) and 2 mM GlutaMax (Gibco) in a 37 °C incubator with 5% CO2. Cells were plated on 96-well plates in growth medium and incubated overnight. The next day, cells were transfected with expression vectors encoding full-length β-Klotho WT or mutants using the Lipofectamine 2000 transfection reagent (Invitrogen) according to the manufacturer’s protocol. Cells were serum-starved in DMEM supplemented with 5% (v/v) FBS (Gibco) and 2 mM GlutaMax (Gibco) overnight the day after transfection and treated with FGF21 for 6 hours at 37 °C with 5% CO2, after which the cells were lysed in Bright-Glo luciferase reagent (Promega). Luciferase activity was measured in relative luminescence units on the EnVision Multilabel Plate Reader (PerkinElmer) according to the manufacturer’s instructions. All assays were performed in duplicates. EC50 values were determined from a three-parameter logistic regression model with the least squares fit using GraphPad Prism version 7.
A general note: Reporter assays use an easily measured gene product as a stand-in for the process of interest.

The subject of a further assay is β-Klotho/FGFR1c. In words: Elk1-luciferase reporter assay in CHO reporter cells stably expressing human β-Klotho and FGFR1c. The settings on record: 4 h treatment, three independent experiments in duplicates, read-out: EC50, stimulation of Elk1-luciferase reporter activity. Format: cell-based. The procedure: To measure the signaling activity of Fc-FGF21 mutants, ELK luciferase assay was performed in CHO cells stably transfected with human FGFR1c, β-Klotho and the two reporter constructs described above. CHO reporter cells were maintained in DMEM supplemented with 10% (v/v) dialyzed FBS (GE Healthcare Life Sciences), 6 µg/mL puromycin (Sigma) and 400 μg/mL hygromycin (Invitrogen) in a 37 °C incubator with 5% CO2. Cells were plated on 96-well plates in growth medium and incubated overnight. The next day, cells were serum-starved in Ham’s F-12K Nutrient Mixture (Corning) supplemented with 1% (w/v) BSA (Sigma) overnight. Following starvation, Fc-FGF21 protein was added to cells in starvation medium. Plates were incubated for 4 hours at 37 °C with 5% CO2, after which the cells were lysed in Steady-Glo luciferase reagent (Promega). Luciferase activity was measured and analyzed as described above.

Read-outs that look alike come from different tables or passages of the source.

B1: FGF21: mature human FGF21 protein, endocrine fibroblast growth factor (protein)
chain: HPIPDSSPLLQFGGQVRQRYLYTDDAQQTEAHLEIREDGTVGGAADQSPESLLQLKALKPGVIQILGVKTSRFLCQRPDGALYGSLHFDPEACSFRELLLEDGYNVYQSEAHGLPLHLPGNKSPHRDPAPRGPARFLPLPGLPPALPEPPGILAPQPPDVGSSDPLSMVGPSQGRSPSYAS
modifications: biotin (EZ-Link Sulfo-NHS-LC-Biotin) in the solid-phase binding assay; biotinylated as the labelled ligand in AlphaScreen
notes: mature human FGF21 protein, endocrine fibroblast growth factor
As to B1, the “EC50, stimulation of Elk1-luciferase reporter activity (no KLB)” value in assay [1] (Fig 3A, mean ± SD of three independent experiments) is reported as “d.n.c”; in assay [1] (Fig 3D), “d.n.c”. The EC50 (as a rule, the concentration needed to bring the measured effect to its halfway point) in the assay with β-Klotho/FGFR complex (Fig 3A) is 3.5 ± 1.1 nM; with β-Klotho/FGFR complex (Fig 3D) it was 2.87 ± 1.15 nM; in the assay with β-Klotho/FGFR1c, 0.57 ± 0.09 nM.

B2: Fc-FGF21: mature human FGF21 polypeptide fused with the human Fc fragment at the N-terminus (protein)
chain: B1 chain
modifications: left off: Fc (human), N-terminal, kept
notes: mature human FGF21 polypeptide fused with the human Fc fragment at the N-terminus
Turning to B2, in the assay with β-Klotho/FGFR1c, the EC50 came to 1.85 ± 0.44 nM.
